# Assay results: paper PMC6107277, “Distinct substrate specificity and physicochemical characterization of native human hepatic thymidine phosphorylase” (PLoS ONE, 2018)
# B1: native human hepatic thymidine phosphorylase (enzyme, human (endogenous in liver), UniProt P19971 11-482, looked up)
# chain: APPAPGDFSGEGSQGLPDPSPEPKQLPELIRMKRDGGRLSEADIRGFVAAVVNGSAQGAQIGAMLMAIRLRGMDLEETSVLTQALAQSGQQLEWPEAWRQQLVDKHSTGGVGDKVSLVLAPALAACGCKVPMISGRGLGHTGGTLDKLESIPGFNVIQSPEQMQVLLDQAGCCIVGQSEQLVPADGILYAARDVTATVDSLPLITASILSKKLVEGLSALVVDVKFGGAAVFPNQEQARELAKTLVGVGASLGLRVAAALTAMDKPLGRCVGHALEVEEALLCMDGAGPPDLRDLVTTLGGALLWLSGHAGTQAQGAARVAAALDDGSALGRFERMLAAQGVDPGLARALCSGSPAERRQLLPRAREQEELLAPADGTVELVRALPLALVLHELGAGRSRAGEPLRLGVGAELLVDVGQRLRRGTPWLRVHRDGPALSGPQSRALQEALVLSDRAPFAAPSPFAELVLPPQQ
# modifications: N-terminal blocked by an unknown moiety (neither N-formyl nor pyrrolidone carboxylic acid)
# notes: thymidine phosphorylase / PD-ECGF, human liver, native subunit of about 50 kDa (49,882 by electrospray MS); DPSPEPKQ = 28-35; Native tissue protein; also called TP; human liver TP; source: purified from human liver (autopsy material) by DEAE-cellulose, Phenyl Sepharose CL-4B and hydroxyapatite chromatography; also used as DEAE-cellulose partially purified fraction and as 50,000 x g liver cytosol
# What was measured:
# [1] = biological target: the molecule itself; assay: SEC + native gel or EMSA; hydroxyapatite homogeneously purified TP (first peak) on Sephadex G-100 in Buffer A (20 mM potassium phosphate pH 8.0, 1 mM DTT, 1 mM EDTA, 1 mM PMSF), 4°C, calibrated with standard proteins; native-PAGE on 10% gel; native about 100 kDa against about 52 kDa on SDS-PAGE
# [2] = biological target: the molecule itself; assay: AUC; sedimentation equilibrium, Beckman XL-A, 15,000 rpm, 20°C, Buffer A, 0.4, 0.2 and 0.1 mg protein/mL, absorbance at 278 nm; global fit to a monomer-dimer-tetramer association model; constants for monomer to dimer (1,2) and dimer to tetramer (2,4)
protein,measurement,setting,value
B1,stoichiometry N,[1],2
same,"Ka (1,2), monomer to dimer",[2],581000 M⁻¹
same,"Ka (2,4), dimer to tetramer",[2],10100 M⁻¹
